In patent publication US20120149879A1 (published 2012) one finds Kd data, which are given here for two molecules.

One assay concerns the target T1, IGF-1R (UniProt P08069 31-932, limits assumed).
T1 construct: Analyte in the Biacore assays; also called IGF-IR; insulin-like growth factor I receptor
The assay can be described thus: SPR (Biacore T100), antibody captured by anti-human IgG on C1 chip, IGF-1R injected, 25 C.

In assay [1] the target is T2, EGFR-ECD (human, UniProt P00533 25-645).
T2 construct: extracellular domain; Analyte in the Biacore assays; also called human epidermal growth factor receptor; HER-1
As to the kind of experiment: SPR (Biacore T100), antibody captured by anti-human IgG on C1 chip, EGFR-ECD injected, 25 C. The protocol: Capturing anti-human IgG antibody was immobilized on the surface of a C1 biosensorchip using amine-coupling chemistry. […] A reference control flow cell was treated in the same way but with vehicle buffers only instead of the capturing antibody. Surfaces were blocked with an injection of 1 M ethanolamine/HCl pH 8.5. The bispecific antibodies were diluted in HBS-P and injected at a flow rate of 5 μl/min. The contact time (association phase) was 1 min for the antibodies at a concentration between 1 and 5 nM. EGFR-ECD was injected at increasing concentrations of 1.2, 3.7, 11.1, 33.3, 100 and 300 nM, IGF-1R at concentrations of 0.37, 1.11, 3.33, 10, 30 and 90 nM. The contact time (association phase) was 3 min, the dissociation time (washing with running buffer) 5 min for both molecules at a flowrate of 30 μl/min. All interactions were performed at 25° C. (standard temperature). The regeneration solutions of 0.85% phosphoric acid and 5 mM sodium hydroxide were injected each for 60 s at 5 μl/min flow to remove any non-covalently bound protein after each binding cycle. Signals were detected at a rate of one signal per second. Samples were injected at increasing concentrations.

Assay [2] deals with T2, EGFR-ECD. As to the kind of experiment: SPR (Biacore T100), antibody captured by anti-human IgG on CM5 chip, EGFR-ECD injected, 25 C. How it is done: A reference control flow cell was treated in the same way but with vehicle buffers only instead of the capturing antibody. Surfaces were blocked with an injection of 1 M ethanolamine/HCl pH 8.5. The bispecific antibodies were diluted in HBS-P and injected at a flow rate of 5 μl/min. […] The contact time (association phase) was 3 min, the dissociation time (washing with running buffer) 5 min for both molecules at a flowrate of 30 μl/min. All interactions were performed at 25° C. (standard temperature). […] Signals were detected at a rate of one signal per second. Samples were injected at increasing concentrations.

B1: scFab-XGFR2_2720 (bispecific antibody)
chain 1: not shown
chain 2: DIQMTQSPSSLSASVGDRVTITCRASQGINNYLNWYQQKPGKAPKRLIYNTNNLQTGVPSRFSGSGSGTEFTLTISSLQPEDFATYYCLQHNSFPTFGQGTKLEIKRTVAAPSVFIFPPSDEQLKSGTASVVCLLNNFYPREAKVQWKVDNALQSGNSQESVTEQDSKDSTYSLSSTLTLSKADYEKHKVYACEVTHQGLSSPVTKSFNRGEC
In the case of B1, the dissociation constant (Kd) is 11 nM in the assay with IGF-1R and 0.5 nM with EGFR-ECD [1].

B2: humanized rat anti-EGFR antibody ICR62 with VH of SEQ ID NO: 8, and VL of SEQ ID NO: 10 (antibody, V domains shown)
VH: QVQLVQSGAEVKKPGSSVKVSCKASGFTFTDYKIHWVRQAPGQGLEWMGYFNPNSGYSTYAQKFQGRVTITADKSTSTAYMELSSLRSEDTAVYYCARLSPGGYYVMDAWGQGTTVTVSS
VL: DIQMTQSPSSLSASVGDRVTITCRASQGINNYLNWYQQKPGKAPKRLIYNTNNLQTGVPSRFSGSGSGTEFTLTISSLQPEDFATYYCLQHNSFPTFGQGTKLEIKR
notes: Parent monospecific 'wildtype' IgG; also called <EGFR>ICR62; <EGFR> ICR62
On to B2, for which the Kd was 0.5 nM in the assay with EGFR-ECD [1] and 3 nM with EGFR-ECD [2].
